Measured values as given in paper PMC11813103, “Interaction of cardiac leiomodin with the native cardiac thin filament” (PLOS Biology, 2025).

B1: Lmod2[451–492] (peptide)
peptide: PLPEKKLITRNIAEVIKQQESAQRALQNGQRKKKGKKVKKQP
notes: also called C-terminal Lmod2 fragment after the polyP region; source: synthetic peptide (Tufts University Core Facility)
B2: Lmod2[387–426] (peptide)
peptide: WQRGTPGSSPYASPRQSPWSSPKVSKKVHTGRSRPPSPVA
notes: also called C-terminal Lmod2 fragment between the LRR domain and the polyP region; source: synthetic peptide (Tufts University Core Facility)
B3: Lmod2[518–543] (peptide)
peptide: STPQRSVHENLMEAIRGSSIRQLRRV
notes: also called Lmod2 fragment containing the WH2 domain; source: synthetic peptide (Tufts University Core Facility)

Each binder was assayed against G-actin (UniProt P68135 1-377) (assay: native gel or EMSA; 9% polyacrylamide, 10% glycerol, no SDS; fragments mixed with 5 μM G-actin at 1:2, 1:1, 1.5:1 and 2:1 molar ratios (Lmod2[518–543] at 2:1 only); densitometry of the actin band). Conditions: both partners purified.

Row | percent of the actin in complex at a 2:1 fragment to actin molar ratio [%] | Binder
1 | ~60 | B1
2 | ~70 | B2
3 | ~90 | B3
